Experimental data published in US20130171170A1 (published 2013).

What was measured:
[1] = molecular target: T1, CD22 variant lacking domain 1 (Δ1), expressed on CHO cells (human, UniProt P20273 139-847); assay: flow cytometry on CHO cells expressing the CD22 deletion variant; goat anti-mouse IgG Alexa 488
T1 construct: Membrane protein on stably transformed CHO cells; Numbering of full length precursor CD22beta (Wilson et al. 1991); also called CD22 lacking domain 1
T1 chain: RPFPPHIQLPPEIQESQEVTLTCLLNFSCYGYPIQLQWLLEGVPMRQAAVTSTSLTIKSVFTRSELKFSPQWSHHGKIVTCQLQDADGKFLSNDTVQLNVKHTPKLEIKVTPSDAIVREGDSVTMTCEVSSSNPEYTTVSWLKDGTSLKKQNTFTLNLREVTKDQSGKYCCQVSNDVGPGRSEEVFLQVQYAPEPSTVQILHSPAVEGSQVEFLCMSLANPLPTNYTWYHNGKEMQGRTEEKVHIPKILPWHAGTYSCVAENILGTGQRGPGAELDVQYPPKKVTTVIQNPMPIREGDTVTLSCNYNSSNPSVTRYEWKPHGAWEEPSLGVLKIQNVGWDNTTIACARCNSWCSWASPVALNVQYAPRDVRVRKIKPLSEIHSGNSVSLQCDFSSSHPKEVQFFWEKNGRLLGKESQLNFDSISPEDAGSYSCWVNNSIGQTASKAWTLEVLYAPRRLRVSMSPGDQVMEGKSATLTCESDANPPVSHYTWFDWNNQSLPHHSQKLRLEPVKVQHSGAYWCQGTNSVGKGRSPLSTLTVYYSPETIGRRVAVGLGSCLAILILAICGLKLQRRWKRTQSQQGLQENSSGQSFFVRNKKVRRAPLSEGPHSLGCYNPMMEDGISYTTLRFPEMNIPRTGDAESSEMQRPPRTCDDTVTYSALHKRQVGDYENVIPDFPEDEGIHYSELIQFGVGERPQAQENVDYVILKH
Experimental: (§1) CD22 sequences lacking various of the seven immunoglobulin-like domains of the major CD22 isoform (CD22beta) were cloned and transformed into cells for stable expression. For example, CD22 variants lacking domain 1 (Δ1), domain 2 (Δ2), or domains 3 and 4 (Δ3,4) were cloned, transformed into CHO cells, and expressed on the cells. Control cells expressed CD22beta. Deletions were performed using Stratagene QuikChange XL™ reagent kit. Deletion of domain 1 was performed by deletion of amino acids 22-138; deletion of domain 2 was performed by deletion of amino acids 139-242; and deleted domains 3 and 4 were available as the minor isoform CD22alpha (deletion of amino acids 241-417). All amino acid numbers refer to the numbering of full length precursor CD22beta by Wilson, G. L. et al. (see FIG. 1 in Wilson, G. L. et al., J. Exp. Med. 173:137-146 (1991)). FIG. 14 is a diagram of the deleted domains. Binding was determined by flow cytometry using an isotype control. […] Binding of 5E8.1.8 was detected using biotinylated goat anti-mouse IgG plus streptavidin PE.

[2] = molecular target: T2, CD22 variant lacking domain 2 (Δ2), expressed on CHO cells (human, UniProt P20273 22-847); assay: as above
T2 construct: Membrane protein on stably transformed CHO cells; Numbering of full length precursor CD22beta (Wilson et al. 1991); also called CD22 lacking domain 2
T2 chain: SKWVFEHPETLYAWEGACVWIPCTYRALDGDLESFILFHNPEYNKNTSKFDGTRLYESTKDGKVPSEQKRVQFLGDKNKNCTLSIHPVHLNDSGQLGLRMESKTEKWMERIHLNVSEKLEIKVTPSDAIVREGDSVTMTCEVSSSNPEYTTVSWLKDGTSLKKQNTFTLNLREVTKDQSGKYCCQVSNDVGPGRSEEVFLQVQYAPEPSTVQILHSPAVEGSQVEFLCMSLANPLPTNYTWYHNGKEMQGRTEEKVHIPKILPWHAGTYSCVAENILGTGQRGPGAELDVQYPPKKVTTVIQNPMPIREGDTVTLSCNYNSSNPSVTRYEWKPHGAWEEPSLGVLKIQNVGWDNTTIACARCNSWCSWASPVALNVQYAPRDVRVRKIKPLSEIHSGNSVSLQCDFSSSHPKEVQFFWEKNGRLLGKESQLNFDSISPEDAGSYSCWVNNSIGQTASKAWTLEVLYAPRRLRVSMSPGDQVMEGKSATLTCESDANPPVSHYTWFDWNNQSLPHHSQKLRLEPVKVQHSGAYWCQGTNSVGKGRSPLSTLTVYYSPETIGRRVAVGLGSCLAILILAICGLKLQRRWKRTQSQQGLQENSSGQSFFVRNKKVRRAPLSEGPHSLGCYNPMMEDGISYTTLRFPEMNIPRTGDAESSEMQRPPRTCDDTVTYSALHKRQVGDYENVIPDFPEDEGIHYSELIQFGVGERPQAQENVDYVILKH
Experimental: as §1

- binding result [1]: no binding
- binding result [2]: no binding
B1: murine anti-human CD22 10F4.4.1 monoclonal antibody (antibody, V domains shown)
VH: QVQLQQSGPELVKPGASVKISCKASGYEFSRSWMNWVKQRPGQGREWIGRIYPGDGDTNYSGKFKGKATLTADKSSSTAYMQLSSLTSVDSAVYFCARDGSSWDWYFDVWGAGTTVTVSS
VL: DILMTQTPLSLPVSLGDQASISCRSSQSIVHSNGNTFLEWYLQKPGQSPKLLIYKVSNRFSGVPDRFSGSGSGTDFTLKISRVEAEDLGVYYCFQGSQFPYTFGGGTKVEIK
notes: Murine hybridoma antibody (ATCC PTA-7621); also called mu 10F4; Mu 10F4.4.1
